# T1: human Bcl-w (human, UniProt Q92843 1-164, limits assumed)
# T1 sequence (looked up): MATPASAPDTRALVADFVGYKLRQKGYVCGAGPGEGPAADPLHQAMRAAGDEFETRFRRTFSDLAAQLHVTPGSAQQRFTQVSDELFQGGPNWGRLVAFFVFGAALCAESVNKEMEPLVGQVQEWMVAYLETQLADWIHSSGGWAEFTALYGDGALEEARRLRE
# T2: human Bfl-1 (human, UniProt Q16548 1-151, limits assumed)
# T2 construct: Also used for the Bfl-1 of Pfeiffer cells in the functional rows
# T2 sequence (looked up): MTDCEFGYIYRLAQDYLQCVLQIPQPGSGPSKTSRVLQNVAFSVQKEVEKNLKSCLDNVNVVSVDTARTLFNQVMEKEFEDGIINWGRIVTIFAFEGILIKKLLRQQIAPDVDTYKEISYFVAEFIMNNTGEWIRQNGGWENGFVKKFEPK
# B1: Bim_A2eT (peptide)
# peptide: RPEIWITQELRRIGDEFNAYYAR
# notes: Bim BH3 point mutant
# B2: Bim_A2eT_F4aI (peptide)
# peptide: RPEIWITQELRRIGDEINAYYAR
# B3: Bim_A2eT_I2dM (peptide)
# peptide: RPEIWMTQELRRIGDEFNAYYAR
# B4: Bim_A2eT_I3dL (peptide)
# peptide: RPEIWITQELRRLGDEFNAYYAR
# B5: MS3 as used in BH3 profiling (peptide)
# peptide: RPEIWLTQHLQRLGDEINAYYAR
# B6: MS1, unlabeled (peptide)
# peptide: RPEIWMTQGLRRLGDEINAYYAR
# B7: NoxaA BH3 peptide from murine Noxa, unlabeled (peptide)
# peptide: AELPPEFAAQLRKIGDKVYC
# Tests used:
# [1] = target: T3, human Bcl-xL (human, UniProt Q07817 1-209); assay: fluorescence anisotropy (FIG. 1)
# T3 construct: Also used for the Bcl-xL of MDA-MB-231 cells in the functional rows
# [2] = target: T4, human Bcl-2 (human, UniProt P10415 1-217, limits assumed); assay: fluorescence anisotropy (FIG. 1)
# T4 construct: Also used for the human Bcl-2 overexpressed in Bcl-2/Myc 2924 cells in the functional rows
# [3] = target: T1, human Bcl-w; assay: fluorescence anisotropy (FIG. 1)
# [4] = target: T2, human Bfl-1; assay: fluorescence anisotropy (FIG. 1)
# [5] = target: T3, human Bcl-xL; assay: cell-based or functional assay
# [6] = target: T4, human Bcl-2; assay: cell-based or functional assay
# [7] = target: murine Mcl-1 (murine, UniProt P97287 1-331, limits assumed); assay: cell-based or functional assay
# Chain of murine Mcl-1 (P97287 whole entry): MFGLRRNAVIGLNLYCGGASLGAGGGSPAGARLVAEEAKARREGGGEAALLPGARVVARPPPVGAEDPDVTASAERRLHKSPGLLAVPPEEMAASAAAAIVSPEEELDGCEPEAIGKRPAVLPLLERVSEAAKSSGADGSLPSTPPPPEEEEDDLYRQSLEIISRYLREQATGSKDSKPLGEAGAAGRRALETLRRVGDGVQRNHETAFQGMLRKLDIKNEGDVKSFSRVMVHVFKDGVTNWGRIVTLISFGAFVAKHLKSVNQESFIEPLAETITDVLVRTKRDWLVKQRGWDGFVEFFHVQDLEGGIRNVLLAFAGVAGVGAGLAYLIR
# T3 sequence (Q07817 1-209): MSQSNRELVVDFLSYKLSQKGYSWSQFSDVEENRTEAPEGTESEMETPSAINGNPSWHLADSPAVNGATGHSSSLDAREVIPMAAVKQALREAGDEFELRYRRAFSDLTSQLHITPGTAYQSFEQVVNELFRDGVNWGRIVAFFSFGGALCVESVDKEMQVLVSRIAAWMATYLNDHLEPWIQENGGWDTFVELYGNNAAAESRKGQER
# T4 sequence (P10415 1-217 limits assumed): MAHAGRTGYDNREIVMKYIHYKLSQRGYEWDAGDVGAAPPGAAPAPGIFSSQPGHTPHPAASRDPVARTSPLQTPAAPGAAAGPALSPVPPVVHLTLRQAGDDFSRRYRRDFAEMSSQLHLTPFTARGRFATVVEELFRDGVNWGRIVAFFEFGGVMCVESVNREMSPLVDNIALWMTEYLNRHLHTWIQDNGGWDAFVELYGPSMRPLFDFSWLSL
binder,measurement,setting,value
B1,fold reduction in binding relative to Bim,[1],6 fold
same,fold reduction in binding relative to Bim,[2],> 20 fold
same,fold reduction in binding relative to Bim,[3],> 20 fold
same,fold reduction in binding relative to Bim,[4],> 20 fold
B2,fold decrease in binding relative to Bim_A2eT,[1],6 fold
same,fold decrease in binding relative to Bim_A2eT,[2],3 fold
B3,fold reduction in binding relative to Bim_A2eT,[1],~4 fold
same,fold reduction in binding relative to Bim_A2eT,[2],~4 fold
same,fold reduction in binding relative to Bim_A2eT,[3],~4 fold
same,fold reduction in binding relative to Bim_A2eT,[4],~4 fold
B4,fold reduction in binding relative to Bim_A2eT,[4],4 fold
B5,"EC50 of mitochondrial depolarization, BH3 profiling, MDA-MB-231 cells",[5],> 100 µM
same,"EC50 of mitochondrial depolarization, BH3 profiling, Bcl-2-dependent line",[6],> 100 µM
same,"EC50 of mitochondrial depolarization, BH3 profiling, Mcl-1/Myc 2640 cells",[7],0.86 µM
B6,"EC50 of mitochondrial depolarization, BH3 profiling, Mcl-1/Myc 2640 cells",[7],0.07 µM
B7,"EC50 of mitochondrial depolarization, BH3 profiling, MDA-MB-231 cells",[5],> 100 µM
same,"EC50 of mitochondrial depolarization, BH3 profiling, Bcl-2-dependent line",[6],> 100 µM

# From patent publication US20180201658A1 (MIT, published 2018)
